PMC10613254

Target: bovine brain Arp2/3 complex (bovine) (UniProt P61157)
Test: ITC; cortactin constructs titrated into ATP-Arp2/3 complex; temperature and concentrations indicated only in Fig. 4d

Chain of Cort_(1-76), cortactin N-terminal acidic domain (NTA, residues 1-76) (Q60598 1-76): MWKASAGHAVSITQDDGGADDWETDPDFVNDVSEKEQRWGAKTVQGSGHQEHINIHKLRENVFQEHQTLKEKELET
Chain of Cort_(18-76) (Q60598 18-76): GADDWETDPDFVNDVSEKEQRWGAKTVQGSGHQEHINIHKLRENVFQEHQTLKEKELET
Chain of Cort_(1-33) (Q60598 1-33): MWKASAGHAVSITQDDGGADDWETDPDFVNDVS

| stoichiometry N | Substance |
| --- | --- |
| 1 | Cort_(1-33) (from UniProt Q60598 1-33) (domain or fragment) |
| 1 | Cort_(1-76), cortactin N-terminal acidic domain (NTA, residues 1-76) (from UniProt Q60598 1-76) (domain or fragment) |
| 1 | Cort_(18-76) (from UniProt Q60598 18-76) (domain or fragment) |
